The record followed here is patent publication US20030023038A1 (Biogen, published 2003).

The target of assay [1] is human full length BAFF (construct PS544), found cleaved in the conditioned media (human, UniProt Q9Y275 134-285). As to the kind of experiment: co-transfection in 293T, anti-FLAG (M2) immunoprecipitation of conditioned media, western blot with anti-BAFF 53.14. The procedure: At 48 hrs. post-transfection, conditioned media was collected and used for immunoprecipitation experiments. The immunoprecipitation samples contained 200 μl of conditioned media, 5 μg/ml of the anti-FLAG antibody M2 (Sigma) and 800 μl of DMEM containing 10% FCS, glutamine, Pen-Strep, G418 and sodium azide and were incubated at 4° C. for 1 hour, with agitation. Then, 30 μl of ProteinA-Sepharose beads (Pharmacia) was added to the samples and the mixture was incubated overnight at 4° C. with agitation. The beads were collected by centrifugation and then washed one time with the DMEM media described above and then 3 times with PBS. The final pellet containing the beads was then suspended in 2× SDS non-reducing sample buffer and boiled for 5 minutes. The beads were spun out and 25 μl of the supernatant was loaded onto 2 separate 4-20% SDS-PAGE gradient gels (Novex). In order to examine the level of ligand expression, non-immunoprecipitated conditioned media from the co-transfected cells were also loaded. These samples were diluted two fold with 2× non-reducing sample buffer, boiled for 2 min. and then 25 μl was loaded into each lane. Each gel contained a set of immunoprecipitations and a set of non-immunoprecipitated conditioned media. […] The filters were again washed 3 times and then detected using ECL reagents (Amersham). […]

In assay [2] the target is T1, human soluble myc-BAFF Q136 (human, UniProt Q9Y275 136-285).
T1 construct: also called plasmid #JST556
As to the kind of experiment: co-transfection in 293T, anti-FLAG (M2) immunoprecipitation of conditioned media, western blot with anti-myc 9E10. An excerpt:
Plasmids encoding the following human soluble TNF family ligands were constructed with the indicated N-terminal epitope tags beginning at the ligand amino acid residue indicated in a PCR3 based mammalian cell expression vector: FLAG-APRIL, beginning with residue A105 (plasmid #LT033) or H115 (plasmid #LT038), FLAG-TWEAK A106 (plasmid #PS288), myc-APRIL A105 (plasmid #JST557), and myc-BAFF Q136 (plasmid #JST556). […] At 48 hrs. post-transfection, conditioned media was collected and used for immunoprecipitation experiments. The immunoprecipitation samples contained 100 μl of conditioned media, 5 μg/ml of the anti-FLAG antibody M2 (Sigma, St Louis, Miss.) and 900 μl of DMEM containing 10% FCS, glutamine, Pen-Strep, G418 and sodium azide and were incubated at 4° C. for 1 hour, with agitation. Then, 30 μl of ProteinA-Sepharose beads (Amersham Pharmacia, Piscataway, N.J.) was added to the samples and the mixture was incubated overnight at 4° C. with agitation. The beads were collected by centrifugation and then washed one time with the DMEM media described above and then 3 times with PBS. The final pellet containing the beads was then suspended in 2× SDS non-reducing sample buffer and boiled for 5 minutes. […] The filter was again washed 3 times and then detected using ECL reagents (Amersham Pharmacia, Piscataway, N.J.). […]
For orientation: Immunoblotting shows a protein as a band on a membrane.

Chain of human full length BAFF (construct PS544), found cleaved in the conditioned media (Q9Y275 134-285): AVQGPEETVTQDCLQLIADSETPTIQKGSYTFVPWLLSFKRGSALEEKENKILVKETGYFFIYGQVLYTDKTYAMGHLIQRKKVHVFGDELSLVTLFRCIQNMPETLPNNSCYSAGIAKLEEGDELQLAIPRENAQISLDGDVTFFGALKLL
T1 sequence (Q9Y275 136-285): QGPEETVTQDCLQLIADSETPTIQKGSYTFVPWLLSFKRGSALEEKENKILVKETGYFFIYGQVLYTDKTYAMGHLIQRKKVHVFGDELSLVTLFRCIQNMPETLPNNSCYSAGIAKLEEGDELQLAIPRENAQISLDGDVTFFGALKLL

B1: soluble FLAG-tagged human TWEAK beginning at A106 (ligand, UniProt O43508 106-249, looked up, not shown: small tags and cut ends)
chain: AIAAHYEVHPRPGQDGAQAGVDGTVSGWEEARINSSSPLRYNRQIGEFIVTRAGLYYLYCQVHFDEGKAVYLKLDLLVDGVLALRCLEEFSATAASSLGPQLRLCQVSGLLALRPGSSLRIRTLPWAHLKAAPFLTYFGLFQVH
notes: also called FLAG-TWEAK A106; plasmid PS288
Consider B1, for which the binding result in assay [1] and in assay [2] was “no binding” in each case.
